Changes are numbered by the printed parent chain.

This experiment has as its target T1, hGUCY2C ECD-His (human, UniProt P25092 24-430).
T1 construct: also called human GUCY2C protein
In words: SPR Biacore, antibody captured. The source says: To test the affinity of the GUCY2C monoclonal antibodies of the present disclosure for GUCY2C, in this test example, the instruments Biacore 8K and Biacore T200 were used to detect the ability of the antibodies to bind to hGUCY2C-ECD-His (SEQ ID NO: 3). The specific method is as follows: The antibody was affinity-captured using a Protein A biosensor chip conjugated with an anti-human antibody, then a solution containing GUCY2C Protein flowed on the surface of the chip, and reaction signals were detected in real time with an instrument to obtain association and dissociation curves. After dissociation was completed for each cycle, the biosensor chip was washed with 10 mM glycine-hydrochloric acid (pH 1.5) for regeneration. Data fitting was performed using a 1:1 model.
(Surface plasmon resonance follows binding to a sensor surface in real time, without labels.)

B1: P3-C7 L2H1 (antibody, human IgG1, kappa, V domains shown)
VH: EVQLVQSGAEVKKPGASVKVSCKASGYTFTDHYIHWVRQAPGQGLEWMGVINPYNDGATYNQKFKGRVTMTVDKSTSTVYMELSSLRSEDTAVYYCARPPRAYGNYAGYWGQGTTVTVSS
VL: DVVMTQTPLSLPVTPGEPASISCRSSQSLVHSNGNTYLHWYLQKPGQSPQLLIYKVSNRFSGVPDRFSGSGSRTDFTLKISRVEAEDVGVYYCSQSTHVPYTFGGGTKVEIKR
notes: hP3-C7 H1 + L2
The term Kd denotes the free concentration of one partner at which half of the binding sites on the other are occupied at equilibrium, for simple one-to-one binding. Low values mean tighter binding, high ones weaker binding. By koff is commonly meant the first-order rate constant of dissociation. Broadly, the kon is a measure of how fast the partners come together. For B1, the Kd is 5.35 nM, the koff was 0.000166 s⁻¹ and the kon worked out at 31000 M⁻¹ s⁻¹.

B2: P3-C7 CHI (antibody, human IgG1, kappa, V domains shown)
VH: EVQLQQSGPVLLKPGASVKMSCKASGYTFTDHYIHWVKLSHGKSLEWIGVINPYNDGATYNQKFKGKATLTVDKSSSTAYMELNSLTSEDSAVYYCARPPRAYGNYAGYWGQGTTLTVSS
VL: B1 VL with T14S, P15L, E17D, P18Q, Q50K, S68I, V88L, Y92F, K108R, V109L
notes: chimeric; also called P3-C7 CH1
B2: the Kd is 6.61 nM, the koff was 0.000149 s⁻¹ and the kon worked out at 22600 M⁻¹ s⁻¹.

B3: P3-C7 L3H1 (antibody, human IgG1, kappa, V domains shown)
VH: B1 VH
VL: B1 VL with N33Q
notes: hP3-C7 H1 + L3
With B3, binding was characterised by a dissociation constant (Kd) of 47.5 nM, the koff was 0.00135 s⁻¹ and the kon is 28400 M⁻¹ s⁻¹.

B4: P3-C7 L1H1 (antibody, human IgG1, kappa, V domains shown)
VH: B1 VH
VL: B1 VL with V2I, R73G
notes: hP3-C7 H1 + L1
For B4, the Kd came out at 6.55 nM, the koff came out at 0.000156 s⁻¹ and the kon came out at 23700 M⁻¹ s⁻¹.

B5: P3-C7 L4H1 (antibody, human IgG1, kappa, V domains shown)
VH: B1 VH
VL: B1 VL with N33S
notes: hP3-C7 H1 + L4
In the case of B5, the Kd turned out to be 73.4 nM, the koff turned out to be 0.00209 s⁻¹ and the kon came out at 28500 M⁻¹ s⁻¹.

B6: P3-C7 L5H1 (antibody, human IgG1, kappa, V domains shown)
VH: B1 VH
VL: B1 VL with N33T
notes: hP3-C7 H1 + L5
For the molecule B6, the affinity, expressed as Kd, was 26.7 nM; the koff was 0.000719 s⁻¹; the kon is 26900 M⁻¹ s⁻¹.

B7: P2-B9 CHI (antibody, human IgG1, kappa, V domains shown)
VH: QVQLQQPGAELVKPGASVKLSCKASGYTFSSYWMHWVKQRPGQGLEWIGMIHPKSDSVNNNEKFKNKATLTVDKSSSTVYLQLSSLTSEDSAVYSCARGGDSGYSMDYWGQGTSVTVSS
VL: DIVLTQSPASLAVSLGQKATISCKASKKVTIFGSISALHWYQQKPGQPPKLIYNGAKLESGVSARFSDSGSQNRSPFGNQLSFTLTIDPVEADDAATYYCLQNKEVPYTFGGGTKLEIKR
notes: chimeric
As to B7, the Kd stood at 3.02 nM, the koff turned out to be 0.000175 s⁻¹ and the kon stood at 58100 M⁻¹ s⁻¹.

B8: P2-C8 CHI (antibody, human IgG1, kappa, V domains shown)
VH: B2 VH with L12V, A24V, H32Y, I34M, L39Q, V50L, D56G, G57V, A58T, T59S
VL: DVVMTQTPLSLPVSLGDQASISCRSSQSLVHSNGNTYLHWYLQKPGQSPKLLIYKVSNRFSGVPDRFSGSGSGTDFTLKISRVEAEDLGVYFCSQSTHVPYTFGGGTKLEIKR
notes: chimeric
As to B8, binding was put at a Kd of 5.12 nM, the koff was determined as 0.000178 s⁻¹ and the kon was determined as 34900 M⁻¹ s⁻¹.

B9: P3-D2 CHI (antibody, human IgG1, kappa, V domains shown)
VH: B2 VH with L12V, H32Y, Y33F, I34M, L39Q, V50L, N55S, D56G, A58T, N105D
VL: DVVMTQTPLSLPVSLGDQASISCRSSQSLVHSNGNTYLHWYLQKPGQSPKLLIYKVSNRFSGVPDRFSGSGSGTDFTLKISRVEAEDLGVYFCSQSTHVPLTFGTGTKLEIKR
notes: chimeric
In turn, B9 registered a Kd of 4.5 nM, a koff of 0.000173 s⁻¹ and a kon of 38600 M⁻¹ s⁻¹.

B10: M81 CHI (antibody, human IgG1, kappa, V domains shown)
VH: EFQLQQSGPELVKPGASVKISCKASGYSFTDHNMNWVKQSNGKSLEWIGVMNPKFGTINYNQKFKDKATLTVDQSSSTAYMQLNSLTSEDSAVYYCVRDDYPNYFDYWGQGTTLTVSS
VL: QIVLTQSPAIMSASPGEKVTISCSASSSVNYMYWYQQKPGSSPKSWIYRTSNLASGVSARFSGSGSGTSYSLTISSMEAEDAATYYCQQYHDYPPTFGGGTKLEIKR
notes: chimeric, murine variable regions on human IgG1/kappa; also called M81CH1
Take B10: the Kd is 0.27 nM, the koff was 5.9e-05 s⁻¹ and the kon is 216000 M⁻¹ s⁻¹.

B11: M146 CHI (antibody, human IgG1, kappa, V domains shown)
VH: EFQLQQSGPELVKPGASVKISCKASGYSFTDYNMNWVKQSNGKSLEWIGLINPKYGTTNYNQKFKGKATLTVDQSSSTAYMQLNSLTSEDSAVYYCAIDDYPAWFAYWGQGTLVTVSA
VL: B10 VL with V29L, S58P, D92S, G99A, I105L
notes: chimeric
Turning to B11, the Kd is 0.46 nM, the koff is 9.22e-05 s⁻¹ and the kon was found to be 203000 M⁻¹ s⁻¹.

B12: P1-C6 CHI (antibody, human IgG1, kappa, V domains shown)
VH: QVQLQQSGAELARPGASVKLSCKASGYTFTSYGITWVKRRTGQGLGWIGEIYPRSGNTYYNEKFKGKATLTADKSSSTAYMELRSLTSEDSAVYFCARAITTVVGDWYFDVWGTGTTVTVSS
VL: DIVLTQSPASLAMSLGKRATISCRASESVSLIGTNLIHWYQQKPGQPPKLLIHHASNLEAGVPARFSGSGSRTDFTLTIDPVEEDDVAIYYCLQSRKIRTFGGGTKLEIKR
notes: chimeric
On to B12, for which the Kd was 2.57 nM, the koff is 0.000181 s⁻¹ and the kon worked out at 70700 M⁻¹ s⁻¹.

B13: M64 CHI (antibody, human IgG1, kappa, V domains shown)
VH: EVQLVESGGGLVKPGGSLKLSCAASGFTFSDYGMHWVRQAPEKGLEWVAYISSGSSTIYYADTVKGRFTISRDNAKNTLFLQMTSLRSEDTAMYYCARTRVYFYGSYWYFDVWGTGTTVTVSS
VL: QIVLTQSPAIMSASPGEKVTMTCSASSSVSYMYWYQQKSGTSPKRWIYDTSKLASGVPARFSGSGSGTSYSLTISSLEAEDAATYYCQQWSSDPPYTFGGGTKLEIKR
notes: chimeric
Molecule B13 registered a Kd of 20.4 nM, an off-rate constant (koff) of 0.000348 s⁻¹ and a kon of 17100 M⁻¹ s⁻¹.

B14: 81 L3H2 (antibody, human IgG1, kappa, V domains shown)
VH: EVQLVQSGAEVKKPGASVKVSCKASGYTFTDHNMNWVKQAPGQRLEWMGVMNPKFGTINYNQKFKDKATITRDTSASTAYMELSSLRSEDTAVYYCARDDYPNYFDYWGQGTTVTVSS
VL: DIQLTQSPSFLSASPGDRVTITCSASSSVNYMYWYQQKPGSSPKSWIYRTSNLASGVPSRFSGSGSGTEYTLTISSLQPEDFATYYCQQYHDYPPTFGGGTKVEIKR
notes: h81 H2 + h81 L3
Turning to B14, the Kd stood at 0.41 nM, the koff is 0.000103 s⁻¹ and the kon worked out at 251000 M⁻¹ s⁻¹.

B15: 81 L2H2 (antibody, human IgG1, kappa, V domains shown)
VH: B14 VH
VL: EIVLTQSPDFQSVTPGEKVTITCSASSSVNYMYWYQQKPDQSPKSWIYRTSNLASGVPSRFSGSGSGTDFTLTISSLEAEDAATYYCQQYHDYPPTFGGGTKVEIKR
notes: h81 H2 + h81 L2
Molecule B15 displayed a Kd of 0.46 nM, a koff of 0.000127 s⁻¹ and a kon of 274000 M⁻¹ s⁻¹.

B16: 81 L4H2 (antibody, human IgG1, kappa, V domains shown)
VH: B14 VH
VL: B14 VL with L53D
notes: h81 H2 + h81 L4
B16 returned a Kd of 0.98 nM, a koff of 0.000207 s⁻¹ and a kon of 212000 M⁻¹ s⁻¹.

B17: 81 L6H2 (antibody, human IgG1, kappa, V domains shown)
VH: B14 VH
VL: B14 VL with S51Q
notes: h81 H2 + h81 L6
For the molecule B17, the Kd came to 0.47 nM, the koff came out at 0.000114 s⁻¹ and the kon was 241000 M⁻¹ s⁻¹.

Values taken from patent US20260028421A1 (JIANGSU HENGRUI PHARMACEUTICALS, published 2026).
